Molecular target: GINS (HIS-(3C)-Sld5, Psf1, Psf2, Psf3) for structural and fluorescence polarisation studies, Q9BRT9;Q14691;Q9Y248;Q9BRX5
Experiment: fluorescence polarisation
Conditions: point at the highest concentration, 150 µM; parent: est. 180; read off a plot

Substance: fluorescently labelled GINI-core peptide (Ala478-Gly497), WT L490P; L491P
- response: 3 mP

From paper PMC10899662, “TopBP1 utilises a bipartite GINS binding mode to support genome replication” (Nature Communications, 2024)
